The source of these data is patent US7378087.

Assay [1] addresses H-2D^b MHC class I molecule (mouse) (UniProt P01899). Nature of the assay: FACS on CMT.64 cells; IFN * (so in the source), peptide +, hβ2m +.
For assay [2] the target is unchanged. Nature of the assay: FACS on RMA cells; IFN +, peptide -, hβ2m -.
Assay [3] shares this target. Kind of assay: FACS on RMA-S cells; IFN -, peptide +, hβ2m +.
Assay [4] has the same target. Nature of the assay: FACS on CMT.64 cells; IFN -, peptide -, hβ2m -.
For assay [5] the target is unchanged. Kind of assay: FACS on RMA-S cells; IFN +, peptide -, hβ2m +.
The target is the same in assay [6]. Nature of the assay: FACS on RMA cells; IFN -, peptide +, hβ2m +.
For assay [7] the target is unchanged. Kind of assay: FACS on RMA cells; IFN +, peptide +, hβ2m -.
The target is the same in assay [8]. Nature of the assay: FACS on RMA-S cells; IFN -, peptide -, hβ2m -.
Assay [9] shares this target. Kind of assay: FACS on RMA-S cells; IFN +, peptide -, hβ2m -.
Assay [10] shares this target. Kind of assay: FACS on RMA cells; IFN +, peptide -, hβ2m +.
Assay [11] shares this target. Kind of assay: FACS on CMT.64 cells; IFN +, peptide -, hβ2m -.
Assay [12] has the same target. Kind of assay: FACS on RMA cells; IFN +, peptide +, hβ2m +.
Assay [13] has the same target. Kind of assay: FACS on CMT.64 cells; IFN -, peptide +, hβ2m +.
Assay [14] shares this target. Nature of the assay: FACS on RMA-S cells; IFN +, peptide +, hβ2m +.
Assay [15] shares this target. Kind of assay: FACS on RMA-S cells; IFN +, peptide +, hβ2m -.
Assay [16] has the same target. Kind of assay: FACS on RMA cells; IFN -, peptide -, hβ2m -.
The target is the same in assay [17]. Kind of assay: FACS on CMT.2-1 cells (rTAP2 transfectant).
For assay [18] the target is unchanged. Kind of assay: single-colour FACS on RMA-S.ptml cells (TAP-1 antisense).
The target is the same in assay [19]. Kind of assay: FACS on CMT.64 cells treated with IFN-γ.
The target is the same in assay [20]. Kind of assay: FACS on CMT.64 cells.
Assay [21] shares this target. Nature of the assay: FACS on CMT.12-21 cells (rTAP1,2 transfectant).
For assay [22] the target is unchanged. Kind of assay: single-colour FACS on RMA-S cells (linear, 5000 events).
Assay [23] has the same target. Kind of assay: FACS on CMT.2-10 cells (rTAP2 transfectant).
The target is the same in assay [24]. Nature of the assay: FACS on CMT.1-10 cells (rTAP1 transfectant).
The target is the same in assay [25]. Kind of assay: FACS on CMT.1-4 cells (rTAP1 transfectant).
The target of assay [26] is human β2-microglobulin (human) (UniProt P61769). Kind of assay: FACS on RMA cells; IFN +, peptide -, hβ2m - (no hβ2m added: background).
Sequence of UniProt P61769 (P61769 21-119 limits assumed): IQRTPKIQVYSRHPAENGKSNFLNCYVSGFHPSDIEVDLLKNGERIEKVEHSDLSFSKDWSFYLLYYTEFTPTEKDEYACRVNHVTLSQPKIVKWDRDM
Assay [27] shares this target. Kind of assay: FACS on RMA cells; IFN +, peptide +, hβ2m - (no hβ2m added: background).
Assay [28] has the same target. Nature of the assay: FACS on RMA-S cells; IFN +, peptide +, hβ2m - (no hβ2m added: background).
Assay [29] has the same target. Nature of the assay: FACS on RMA-S cells; IFN +, peptide -, hβ2m - (no hβ2m added: background).
Assay [30] has the same target. Nature of the assay: FACS on RMA-S cells; IFN -, peptide -, hβ2m - (no hβ2m added: background).
Assay [31] shares this target. Kind of assay: FACS on RMA cells; IFN +, peptide -, hβ2m + (hβ2m bound on the cell surface).
Assay [32] shares this target. Nature of the assay: FACS on RMA cells; IFN -, peptide -, hβ2m - (no hβ2m added: background).
The target is the same in assay [33]. Kind of assay: FACS on RMA-S cells; IFN +, peptide +, hβ2m + (hβ2m bound on the cell surface).
Assay [34] has the same target. Nature of the assay: FACS on RMA cells; IFN +, peptide +, hβ2m + (hβ2m bound on the cell surface).
Assay [35] has the same target. Nature of the assay: FACS on RMA cells; IFN -, peptide +, hβ2m + (hβ2m bound on the cell surface).
Assay [36] has the same target. Kind of assay: FACS on RMA-S cells; IFN -, peptide +, hβ2m + (hβ2m bound on the cell surface).
For assay [37] the target is unchanged. Kind of assay: FACS on RMA-S cells; IFN +, peptide -, hβ2m + (hβ2m bound on the cell surface).
In assay [38] the target is H-2K^b MHC class I molecule (mouse) (UniProt P01901). Nature of the assay: FACS on CMT.2-1 cells (rTAP2 transfectant).
Sequence of UniProt P01901 (P01901 22-305 limits assumed): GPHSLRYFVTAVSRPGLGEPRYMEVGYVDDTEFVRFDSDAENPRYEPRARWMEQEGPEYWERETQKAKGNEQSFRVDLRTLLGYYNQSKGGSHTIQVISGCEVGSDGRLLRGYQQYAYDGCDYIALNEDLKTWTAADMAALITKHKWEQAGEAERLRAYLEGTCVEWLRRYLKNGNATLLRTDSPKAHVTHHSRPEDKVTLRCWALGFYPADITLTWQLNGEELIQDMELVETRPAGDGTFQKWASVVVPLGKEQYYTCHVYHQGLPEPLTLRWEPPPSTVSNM
Assay [39] shares this target. Nature of the assay: FACS on CMT.neo cells (vector control).
The target is the same in assay [40]. Nature of the assay: single-colour FACS on RMA-S.ptml cells (TAP-1 antisense).
The target is the same in assay [41]. Nature of the assay: FACS on CMT.64 cells treated with IFN-γ.
Assay [42] has the same target. Kind of assay: FACS on CMT.64 cells.
For assay [43] the target is unchanged. Nature of the assay: FACS on CMT.1-1 cells (rTAP1 transfectant).
The target is the same in assay [44]. Nature of the assay: FACS on CMT.12-21 cells (rTAP1,2 transfectant).
Assay [45] shares this target. Nature of the assay: single-colour FACS on RMA-S cells (linear, 5000 events).
Assay [46] has the same target. Nature of the assay: FACS on CMT.2-10 cells (rTAP2 transfectant).
The target is the same in assay [47]. Kind of assay: FACS on CMT.1-10 cells (rTAP1 transfectant).
Assay [48] shares this target. Kind of assay: FACS on CMT.1-4 cells (rTAP1 transfectant).

Sequence of UniProt P01899 (P01899 25-309 limits assumed): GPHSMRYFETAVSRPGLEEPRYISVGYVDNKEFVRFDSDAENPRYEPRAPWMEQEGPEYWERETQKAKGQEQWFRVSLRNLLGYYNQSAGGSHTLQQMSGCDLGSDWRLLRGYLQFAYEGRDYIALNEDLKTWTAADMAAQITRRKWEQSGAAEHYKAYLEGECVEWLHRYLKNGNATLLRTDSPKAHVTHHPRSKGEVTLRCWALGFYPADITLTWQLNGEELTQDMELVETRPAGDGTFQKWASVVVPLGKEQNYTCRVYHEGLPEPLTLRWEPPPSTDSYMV

Turning to “28-11-5s anti H-2 D^b (α1+α2) monoclonal antibody”, the fluorescence units (arbitrary fluorescence units) in [1] amounted to 53; in assay [2], 430; in assay [3], 2; in [4], 3; in assay [5], 2; in assay [6], 182. Also, the fluorescence units (arbitrary fluorescence units) in [7] came out at 449; in assay [8], 2; in [9], 4; in assay [10], 549; in assay [11], 58; in assay [12], 515. Moreover, the fluorescence units (arbitrary fluorescence units) in assay [13] was found to be 5; in assay [14], 2; in assay [15], 1; in assay [16] it was 173.

On to “28-14-8s anti H-2 D^b (α3) monoclonal antibody”, for which the immunofluorescence intensity (negative control subtracted) amounted to 10 in assay [17]; 1100 in assay [19]; 18 in assay [20]; 103 in assay [21]; 39 in assay [23]; 68 in assay [24]. The immunofluorescence intensity (negative control subtracted) in assay [25] turned out to be 164. The MEAN FLUORESCENCE in [18] was 96.7; in assay [22] it was 130.

For “BBM.1 monoclonal antibody against human β2m”, the fluorescence units (arbitrary fluorescence units) in [26] was 6; in assay [27] it was 4; in assay [28] it was 14; in [29], 14; in assay [30] it was 1; in [31] it was 406. The fluorescence units (arbitrary fluorescence units) in assay [32] was found to be 1; in [33], 262; in [34], 606; in assay [35] it was 274; in [36] it was 86; in assay [37], 76.

In the case of Y-3 anti-H-2K^b monoclonal antibody, the immunofluorescence intensity (negative control subtracted) in assay [38] worked out at 3; in assay [39], 0.1; in assay [41], 590; in assay [42], 0; in assay [43], 62; in [44], 22. Further, the immunofluorescence intensity (negative control subtracted) came out at 48 in [46], 36 in assay [47] and 64 in [48]. For the same substance, the MEAN FLUORESCENCE came out at 149 in [40] and 222 in assay [45].
